What was measured:
Assay in all cases: EMSA
Rad52 = Rad52 (Saccharomyces cerevisiae, UniProt P06778)
Rad52 (K253R) = Rad52 (K253R) (Saccharomyces cerevisiae, UniProt P06778 1-471, K220R)
Rad52 (K43,44R) = Rad52 (K43,44R) (Saccharomyces cerevisiae, UniProt P06778 1-471, K10R;K11R)
Rad52 (K43,44,253R) = Rad52 (K43,44,253R) (Saccharomyces cerevisiae, UniProt P06778 1-471, K10R;K11R;K220R)

Measured: binding result

AGCTACCATGCCTGCACGAATTAAGCAATTCGTAATCATGGTCATAGCT (ssDNA) [49-mer ssDNA (Oligo-3)]
binds: all assays above
